The numbers were not newly measured in article PMC9414616, which cites them from elsewhere.

As a reminder, the Kd is the equilibrium constant for the complex coming apart.

This series concerns the target NTSR2 (UniProt O95665).
Chain of UniProt O95665 (O95665 whole entry): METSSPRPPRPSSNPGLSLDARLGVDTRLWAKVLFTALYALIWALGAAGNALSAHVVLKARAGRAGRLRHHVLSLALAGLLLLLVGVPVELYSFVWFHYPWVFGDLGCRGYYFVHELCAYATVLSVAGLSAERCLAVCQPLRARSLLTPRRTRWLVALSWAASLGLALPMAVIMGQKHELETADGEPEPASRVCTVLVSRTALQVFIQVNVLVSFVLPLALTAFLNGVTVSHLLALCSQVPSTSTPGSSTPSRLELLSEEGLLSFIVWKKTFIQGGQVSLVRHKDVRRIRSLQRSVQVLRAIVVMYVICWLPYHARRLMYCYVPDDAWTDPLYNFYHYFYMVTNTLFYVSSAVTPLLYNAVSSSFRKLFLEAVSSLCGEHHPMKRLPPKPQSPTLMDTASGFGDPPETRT

Consider neurotensin (from UniProt P30990), for which the dissociation constant (Kd) is 4 nM.
